Drawing on the RNAGym collection of RNA variant scans (doi:10.1093/molbev/msab373), this text covers reverse-splicing fitness for 83 variants.

B1: Azoarcus group I ribozyme (parent)
chain: GUGCCUUGCGCCGGGAAACCACGCAAGGGAUGGUGUCAAAUUCGGCGAAACCUAAGCGCCCGCCCGGGCGUAUGGCAACGCCGAGCCAAGCUUCGGCGCCUGCGCCGAUGAAGGUGUAGAGACUAGACGGCACCCACCUAAGGCAAACGCUAUGGUGAAGGCAUAGUCCAGGGAGUGGCGAAAGUCACACAAACCGG

The variants in this series derive from B1. In words: reverse-splicing fitness (ratio to wild type); higher = more active; in vitro selection; Mg2+ level not given. The essentials:
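An in vitro group I ribozyme library with randomized positions was T7-transcribed and gel-purified. In triplicate, 10 pmol RNA in EPPS pH 7.5 was reacted with 50 pmoles of a 30-nt RNA substrate for 1 h at 37 °C across several added MgCl2 levels (1–48 mM), then stopped with EDTA. Products were reverse transcribed from a substrate-complementary primer, PCR-amplified and sequenced (HiSeq 4000). Fitness is a variant's read proportion after selection over that before, normalised to wild type.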
Consider A111U A120U C150G C169U, for which the reverse-splicing fitness is 0.00855.

For C82A A111U A145U C169U U176C, the reverse-splicing fitness is 0.0139. The value for A120C A145C C150A U176C was 0.102; that for A111C A120U A145U C150G C169A U176G was 0.00296; that for C82U A111U A120U A145U C150G C169A U176C was 0.00272.

With C82U A111C A120G A145U C169U U176G, the reverse-splicing fitness is 0.00369. The value for C82U A111C A120U C150A C169G was 0.00399; that for C82G A111U A120G A145U C150A C169A U176G was 0.00527. The value for C82A A111C A120U A145C C150A C169U U176A was 0.0036; that for C82G A111C A120G A145U C150A U176A was 0.0121. In the case of C82G A111C A120C A145C C150U C169G U176C it was 0.0168; in that of C82U A111C A120U A145U C150G U176C, 0.00509; in that of C82A A111G A145C U176A, 0.181. Regarding C82U A111U A120G A145G C150G C169A U176A, the reverse-splicing fitness is 0.0128. In the case of C82G A120G A145C C169U U176C it was 0.0185; in that of A111U A120C A145U C150A U176A, 0.034; in that of A111U A120C A145U C150A U176C, 0.0509.

In the case of A111G A145U C150A U176A, the reverse-splicing fitness came to 0.224. C82G A111C A120G A145U C150G C169U U176G: the reverse-splicing fitness was found to be 0.00536. The value for C82U A111G A120C A145G C150G was 0.00985; that for A111C A120C C169U U176G was 0.0068; that for C82A A111G A120C A145U C150G U176A was 0.00605. The value for C82A A120U C150G C169U U176A was 0.00325; that for C82U A111U A145U C150G U176A was 0.0103.

For the variant C82U A120U C150A C169U U176A, the reverse-splicing fitness was determined as 0.00411. The value for C82G A120G C150U C169A U176A was 0.0184. The value for A120U A145U C150G C169U U176G was 0.00288; that for A120G A145C C150G was 0.0854.

Consider A111U A120U A145U C150G C169U U176G, for which the reverse-splicing fitness came out at 0.00222. C82U A111U A120G C150G C169U: the reverse-splicing fitness was 0.00755. Consider A111U A120G C150U U176A, for which the reverse-splicing fitness was 0.0266. The value for C82G A111G A120C A145G C150A C169A was 0.0118; that for C82A A111G A145C C150U was 0.0851; that for C82A A111C A120U C169U U176A was 0.00613. The value for A111G A120U A145U C150G C169A U176A was 0.00281; that for C82G A111G A120U A145U C150U C169U U176G was 0.00196. For C82A A111C A120C A145U C169G, the reverse-splicing fitness was found to be 0.0102. The value for C82A A111U A120G A145U C150U C169U U176C was 0.0148; that for C82U A111G A120G C150U C169U was 0.00996; that for C82G A120C C150U C169A U176G was 0.00618. The value for A111G C150U U176A was 0.686; that for C82U A111G A120U A145G C150U U176G was 0.00327; that for C82U A111G A120U A145G C150U U176C was 0.0134. On to A145U C150G C169A U176G, for which the reverse-splicing fitness turned out to be 0.00602. In the case of C82A A111G A120U C150A C169U U176A it was 0.00585; in that of C82G A111G A120G C150G C169A U176G, 0.00685. In the case of C82U C150G C169G, the reverse-splicing fitness amounted to 0.00776. In the case of C82G A111U A120G A145G C150A C169U U176G it was 0.00642; in that of C82A A111C A145U C169U, 0.0124; in that of C82G A111C A120C A145G C150U U176C, 0.0215. In the case of C82G A111G A120C A145U C150G C169U U176A it was 0.0078.

With C82U A111C A120U A145U U176G, the reverse-splicing fitness stood at 0.00361.

As for C82U A111U A120U A145U C150U C169A U176C, the reverse-splicing fitness turned out to be 0.00275. In the case of C82G A120C A145C C150U C169U, the reverse-splicing fitness was found to be 0.0122.

As to C82G A120G A145C C169A, the reverse-splicing fitness is 0.0237. In the case of C82G A111C A120G A145G C150A it was 0.00945. In the case of C82A A111G A120U A145C C150U C169A it was 0.00248; in that of C82G A111G A120G C150A C169A U176A, 0.0233. In the case of C82A A111G A120G C150U C169U U176A it was 0.023. With C82G A111C A120G C150U C169U, the reverse-splicing fitness amounted to 0.00939. In the case of C82U A111U C150A C169U U176G it was 0.0075; in that of A111C A120U C150A C169G U176G, 0.00245; in that of C82A A111G A120C A145C C150A C169U U176C, 0.011. On to C82G A111U A120C C150U U176A, for which the reverse-splicing fitness was found to be 0.0133. For the variant C82G A111C A120G C150A C169U U176C, the reverse-splicing fitness was 0.0171. For C82G A145G C150U C169G U176G, the reverse-splicing fitness stood at 0.00499. The value for C82G A145C C150U U176G was 0.0373; that for A111G A120U A145C C150A C169U U176G was 0.00197. The value for A120C C150G C169A U176C was 0.00991; that for C82G A111C A120C A145C C150A C169U was 0.0113; that for A111C A120U C150U C169G U176G was 0.00251.

With C82A A111C A145G C150G U176C, the reverse-splicing fitness was found to be 0.0173.

Turning to C82G A111G A145U C169A U176A, the reverse-splicing fitness is 0.0133. In the case of C82A A111U A120G A145U C150A it was 0.00949; in that of C82U A111C A120G A145U C150U C169U U176C, 0.0107; in that of C82A A111U A120G A145U C150G C169A U176A, 0.0086. The value for C82A A120C A145U C150G C169G U176C was 0.00545; that for C82A A111G C150U C169G U176A was 0.0188.

For C82U A120U A145G C169A, the reverse-splicing fitness was 0.00259. The value for C82U A111C A120G A145C C150A U176G was 0.00348; that for C82G A111U A120C A145G C169G U176G was 0.00543; that for C82G A111C A120G A145C C150A C169A U176A was 0.0124.

As to C82U A120G C169U U176A, the reverse-splicing fitness is 0.0244.
